From patent US20250051474A1, “ANTI-CD97 ANTIBODIES AND ANTIBODY-DRUG CONJUGATES” (New York University, priority 2023, published 2025) come the findings set out here.

In the test the target is T1, CD97 GAIN mutant T351K expressed on ExpiCHO cells (human, UniProt P48960 21-835).
T1 construct: numbering of isoform 1; whole entry named
T1 sequence: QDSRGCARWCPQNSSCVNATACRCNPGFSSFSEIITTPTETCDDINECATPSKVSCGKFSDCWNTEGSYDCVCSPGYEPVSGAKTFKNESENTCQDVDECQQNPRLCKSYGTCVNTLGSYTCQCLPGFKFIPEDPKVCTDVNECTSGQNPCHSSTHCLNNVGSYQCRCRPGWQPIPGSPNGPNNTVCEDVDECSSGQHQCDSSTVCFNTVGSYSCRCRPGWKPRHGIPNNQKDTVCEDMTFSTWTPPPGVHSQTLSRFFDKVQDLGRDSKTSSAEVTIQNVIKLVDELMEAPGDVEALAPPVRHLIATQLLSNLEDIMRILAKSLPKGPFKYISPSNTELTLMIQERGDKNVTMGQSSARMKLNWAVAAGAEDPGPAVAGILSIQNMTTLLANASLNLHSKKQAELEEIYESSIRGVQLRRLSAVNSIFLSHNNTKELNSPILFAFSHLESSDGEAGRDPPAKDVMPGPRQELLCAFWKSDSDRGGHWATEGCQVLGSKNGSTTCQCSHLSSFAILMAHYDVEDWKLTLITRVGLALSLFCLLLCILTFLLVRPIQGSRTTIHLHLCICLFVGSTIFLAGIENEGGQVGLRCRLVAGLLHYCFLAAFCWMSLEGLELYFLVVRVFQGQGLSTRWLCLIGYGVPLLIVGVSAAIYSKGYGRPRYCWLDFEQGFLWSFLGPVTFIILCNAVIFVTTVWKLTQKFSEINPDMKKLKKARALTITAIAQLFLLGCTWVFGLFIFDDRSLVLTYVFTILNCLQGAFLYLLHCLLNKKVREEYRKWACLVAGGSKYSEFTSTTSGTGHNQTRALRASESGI
Nature of the test: cell-based binding assay: CD97 GAIN mutant T351K transiently expressed on ExpiCHO cells, A8 Fab titrated, flow cytometry MFI; lower panel.

Procedure: KD values were determined from the curve fitting of a 1:1 binding model.

B1: Antibody clone A8, Fab format (Fab, V domains shown)
VH: EVQLVESGGGLVQPGGSLRLSCAASGFTISSYSIHWVRQAPGKGLEWVASISPYYGSTSYADSVKGRFTISADTSKNTAYLQMNSLRAEDTAVYYCARSWYYYEQNPYWYQKEEQALDYWGQGTLVTVSS
VL: DIQMTQSPSSLSASVGDRVTITCRASQSVSSAVAWYQQKPGKAPKLLIYSASSLYSGVPSRFSGSRSGTDFTLTISSLQPEDFATYYCQQSVYSPVTFGQGTKVEIKR
notes: Fab; also called wild type A8
B1: the binding result is “no binding (tested: 1000 nM)”.
